# From publication PMC11210196
# System: CsrA-H6 (Escherichia coli (K-12 MG1655?))
# Experiment: EMSA
# Settings: apparent Kd, EMSA: 0.08-0.2 nM RNA, 10 mM MgCl2, 100 mM KCl, 32.5 ng SUPERase In, 37 C 30 min, footprint: 2 nM RNA, 10 mM Tris-HCl pH 7.5, 10 mM MgCl2, 100 mM KCl, 40 ng …
substance,measurement,setting,value
gadA 5' leader (EMSA),Kd,two shifts,73 nM
evgA 5' leader (EMSA),Kd,two shifted species,7 nM
gadE 5' leader (EMSA),Kd,,138 nM
gadB 5' leader (EMSA),Kd,two shifts,49 nM
ydeO 5' leader (EMSA),Kd,binds both conformers,84 nM
